8 molecules from ChEMBL document CHEMBL1143972, “Electronic effects of para-substitution on acetophenones in the reaction of rat liver 3alpha-hydroxysteroid dehydrogenase” (Bioorg Med Chem, 2008) can be followed below.

Data set [1] concerns the target T1, 3-alpha-hydroxysteroid dehydrogenase (Rattus norvegicus) (UniProt P23457).
T1 sequence (whole entry): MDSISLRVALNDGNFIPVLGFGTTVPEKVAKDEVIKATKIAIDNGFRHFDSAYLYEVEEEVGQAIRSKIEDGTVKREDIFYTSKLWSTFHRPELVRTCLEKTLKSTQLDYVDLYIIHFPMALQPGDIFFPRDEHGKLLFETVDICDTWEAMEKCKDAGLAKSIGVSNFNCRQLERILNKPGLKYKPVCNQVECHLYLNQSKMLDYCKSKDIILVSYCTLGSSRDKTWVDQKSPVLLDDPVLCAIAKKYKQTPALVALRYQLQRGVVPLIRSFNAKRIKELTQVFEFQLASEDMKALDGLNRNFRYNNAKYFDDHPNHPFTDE
Kind of data set: Ratio of Vmax to Km for rat liver 3-alpha-HSD for formation of corresponding (S)-alcohol products.

The target of data set [2] is T1, 3-alpha-hydroxysteroid dehydrogenase (Rattus norvegicus). Kind of data set: Ratio of Vmax to Km for rat liver 3-alpha-HSD for formation of corresponding (R)-alcohol products.
Substrate in data set [3]: CC(=O)c1ccc(Br)cc1
Kind of data set: (§1) Activity of rat liver 3-alpha-HSD assessed as formation of corresponding (S)-alcohol products.

Substrate in data set [4]: CC(=O)c1ccc(C#N)cc1
Described as §1.

Substrate in data set [5]: CC(=O)c1ccc(C)cc1
The data set is described as §1.

Substrate in data set [6]: CC(=O)c1ccc(N(C)C)cc1
Described as §1.

Substrate in data set [7]: CC(=O)c1ccc([N+](=O)[O-])cc1
The data set is described as §1.

Substrate in data set [8]: CC(=O)c1ccccc1
The description is as §1.

Substrate in data set [9]: COc1ccc(C(C)=O)cc1
The description is as §1.

Substrate in data set [10]: CC(=O)c1ccc(Br)cc1
The experiment in a line: (§2) Activity of rat liver 3-alpha-HSD assessed as formation of corresponding (S)-alcohol products per mg of protein.

Substrate in data set [11]: CC(=O)c1ccc(C#N)cc1
The description is as §2.

Substrate in data set [12]: CC(=O)c1ccc(C)cc1
The description is as §2.

Substrate in data set [13]: CC(=O)c1ccc(N(C)C)cc1
Described as §2.

Substrate in data set [14]: CC(=O)c1ccc([N+](=O)[O-])cc1
The data set is described as §2.

Substrate in data set [15]: CC(=O)c1ccccc1
The description is as §2.

Substrate in data set [16]: COc1ccc(C(C)=O)cc1
The data set is described as §2.

Substrate in data set [17]: CC(=O)c1ccc(C)cc1
Kind of data set: (§3) Activity of rat liver 3-alpha-HSD assessed as formation of corresponding (R)-alcohol products.

Substrate in data set [18]: CC(=O)c1ccc(N(C)C)cc1
Described as §3.

Substrate in data set [19]: CC(=O)c1ccc(C)cc1
The experiment in a line: (§4) Activity of rat liver 3-alpha-HSD assessed as formation of corresponding (R)-alcohol products per mg of protein.

Substrate in data set [20]: CC(=O)c1ccc(N(C)C)cc1
The description is as §4.

As for `CC(=O)c1ccc([N+](=O)[O-])cc1`, the Ratio in data set [1] worked out at 61700 µL/min.
The same measure, in the same setting: next, `CC(=O)c1ccc(Br)cc1`: 30.6 µL/min.
In the case of `CC(=O)c1ccc(N(C)C)cc1`, the Ratio in [1] turned out to be 0.41 µL/min; in data set [2] it was 0.09 µL/min.
Take `CC(=O)c1ccccc1`: the Ratio in data set [1] stood at 49 µL/min.
`COc1ccc(C(C)=O)cc1`: the Ratio in [1] turned out to be 0.97 µL/min.
On the same count and under the same terms, the same measure for `CC(=O)c1ccc(C#N)cc1`: 9440 µL/min.
For the molecule `CC(=O)c1ccc(C)cc1`, the Ratio in data set [1] amounted to 7.21 µL/min; in data set [2], 1.01 µL/min.

B1: 3-alpha-hydroxysteroid dehydrogenase (Rattus norvegicus), P23457 (protein)
chain: T1 sequence (whole entry)
In the case of B1, the Km in data set [3] was 10.3 mM; in data set [4], 0.11 mM; in data set [5], 27.7 mM; in data set [6] it was 21.9 mM; in data set [7], 0.02 mM; in data set [8], 10.4 mM. The Km in [9] was determined as 5.59 mM; in [17], 13.2 mM; in data set [18], 19.2 mM. For the same molecule, the Vmax in data set [10] was 0.315 µmol/min; in data set [11] it was 1.08 µmol/min; in [12] it was 0.2 µmol/min; in data set [13], 0.009 µmol/min; in data set [14] it was 1.13 µmol/min; in data set [15], 0.51 µmol/min. Also, the Vmax amounted to 0.005 µmol/min in data set [16], 0.013 µmol/min in data set [19] and 0.002 µmol/min in data set [20].
